Reference: the Human Domainome abundance scans (Beltran et al. 2025)
± gives the uncertainty stated by the source.

B1: Transcription elongation regulator 1-like protein, residues 448 to 504; numbered along this chain, Q5VWI1 (parent)
chain: LPLEERVTHFRDMLLERGVSAFSTWEKELHKIVFDPRYLLLNSEERKQIFEQFVKTR

Variants of: B1
Experiment: abundance fitness (aPCA) (normalised: wild type 0, dead -1); higher = more abundant; growth selection in yeast, the domain comes from the species named
Details: Homo sapiens

Point of comparison: LPLEERVTHFRDMLLERGVSAFSTWEKELHKIVFDPRYLLLNSEERKMIFEQFVKTR [Q48M], abundance fitness -0.002 ± 0.24. Against it:
- LPLEERVTHFRDMLLERGVSVFSTWEKELHKIVFDPRYLLLNSEERKQIFEQFVKTR [A21V] — within error, -0.22 ± 0.15
- LPLEERVTHFRDMLLERGVSCFSTWEKELHKIVFDPRYLLLNSEERKQIFEQFVKTR [A21C] — within error, -0.202 ± 0.34
- LPLEERVTHFRDMLLERGVSQFSTWEKELHKIVFDPRYLLLNSEERKQIFEQFVKTR [A21Q] — within error, -0.245 ± 0.34
- LPSEERVTHFRDMLLERGVSAFSTWEKELHKIVFDPRYLLLNSEERKQIFEQFVKTR [L3S] — lower, -0.704 ± 0.23
- LPVEERVTHFRDMLLERGVSAFSTWEKELHKIVFDPRYLLLNSEERKQIFEQFVKTR [L3V] — within error, 0.28 ± 0.11
- LPLEERVTHFRDMLLERGVSAFSTWEKELHKIVFDPRYLLLNSEERKQIFEQFVKKR [T56K] — within error, -0.078 ± 0.22
- LPLEERVTHFRDMLLERGCSAFSTWEKELHKIVFDPRYLLLNSEERKQIFEQFVKTR [V19C] — within error, -0.611 ± 0.44
- LPLEERVTHFRDMLLERGVSAFSTWEKELHKIVFDPRYLLLNSEERKKIFEQFVKTR [Q48K] — within error, -0.31 ± 0.48
- LPLEERVTHFRDMLLERGVSAFSTWEKELHKIVFDPMYLLLNSEERKQIFEQFVKTR [R37M] — lower, -0.81 ± 0.24
- LPLEERVPHFRDMLLERGVSAFSTWEKELHKIVFDPRYLLLNSEERKQIFEQFVKTR [T8P] — within error, -0.013 ± 0.37
- LPLEERVVHFRDMLLERGVSAFSTWEKELHKIVFDPRYLLLNSEERKQIFEQFVKTR [T8V] — within error, -0.287 ± 0.11
- LPLEERVRHFRDMLLERGVSAFSTWEKELHKIVFDPRYLLLNSEERKQIFEQFVKTR [T8R] — lower, -0.631 ± 0.34
- LPLEERVTHFRDMLLERGVSAFSTNEKELHKIVFDPRYLLLNSEERKQIFEQFVKTR [W25N] — lower, -0.557 ± 0.31
- LPLEERVTHFRDMLLERGVSAFSTGEKELHKIVFDPRYLLLNSEERKQIFEQFVKTR [W25G] — lower, -0.898 ± 0.16
- LPLEERVTHFRDMLLERGVSAFSTWEKELHSIVFDPRYLLLNSEERKQIFEQFVKTR [K31S] — lower, -0.789 ± 0.17
- LPLEERVTHFRDMLLERGVSAFSTWEKELHMIVFDPRYLLLNSEERKQIFEQFVKTR [K31M] — lower, -0.496 ± 0.17
- LPLEERVTHFRDMLLERGVSAFSTWEKELHKIVFDPRYLLLNMEERKQIFEQFVKTR [S43M] — within error, -0.134 ± 0.15
- LPLEERVTHFRDMLLERGVSAFSTWEKELHKIVFDPRYLLLNNEERKQIFEQFVKTR [S43N] — within error, -0.367 ± 0.45
- LPLEERVTHFRDMLLERGVSAFSTWEKELHKIVFDPRYLLLNREERKQIFEQFVKTR [S43R] — within error, -0.156 ± 0.14
- LPLEERVTHFRDMLLERGVSAFSTWEKELHKIVFDPRYLLLNSEERKQIFEDFVKTR [Q52D] — within error, 0.193 ± 0.15
- LPLEERVTHFRDMLLERGVSAFSTWEKELHKIVFDPRYLLLNSEERKQIFEKFVKTR [Q52K] — within error, -0.238 ± 0.16
- LPLEERVTHFRDMLLERGVSAFSTWEKELHKIVFDPRYLLLNSEERKQIFEIFVKTR [Q52I] — lower, -0.592 ± 0.094
- LPLEERVTHFRDMLLERGVSAFSTWEKELHKIVFDPRYLLLNSEERKQIFELFVKTR [Q52L] — lower, -0.435 ± 0.087
- LPLEERVTHFRDMLLERGVSAFSTWEKELHKIVFDPRYLLLNSWERKQIFEQFVKTR [E44W] — within error, -0.22 ± 0.12
- LPLEERVTHFRDMLLERGVSAFSTWEKELHKIVFDPRYLLLNSVERKQIFEQFVKTR [E44V] — within error, -0.159 ± 0.097
- LPLEERVTHFRDMLLERGVSAFSTWEKELHKIVFDPRYLLLNSLERKQIFEQFVKTR [E44L] — within error, -0.211 ± 0.2
- LPLEERHTHFRDMLLERGVSAFSTWEKELHKIVFDPRYLLLNSEERKQIFEQFVKTR [V7H] — within error, -0.303 ± 0.22
- LPLEERVTHFRDMLLERGVSAFSTWEKELHKIVGDPRYLLLNSEERKQIFEQFVKTR [F34G] — within error, 0.11 ± 0.074
- IPLEERVTHFRDMLLERGVSAFSTWEKELHKIVFDPRYLLLNSEERKQIFEQFVKTR [L1I] — higher, 2.04 ± 0.48
- LPLEERVTHFRDMLLERGVSAFSTWEKEAHKIVFDPRYLLLNSEERKQIFEQFVKTR [L29A] — within error, -0.409 ± 0.17
- LPLEERVTHFRDMLLERGVSAFSTWEKELHKIVFDPRYLLLNSEEYKQIFEQFVKTR [R46Y] — within error, -0.162 ± 0.38
- LPLEEFVTHFRDMLLERGVSAFSTWEKELHKIVFDPRYLLLNSEERKQIFEQFVKTR [R6F] — within error, -0.292 ± 0.41
- LPLEEGVTHFRDMLLERGVSAFSTWEKELHKIVFDPRYLLLNSEERKQIFEQFVKTR [R6G] — lower, -0.894 ± 0.23
- LPLEERVTHFRDMLLERGVSAFSTWEKELHKIVFDPRYLLLNSEERKQIFEQFVGTR [K55G] — within error, -0.278 ± 0.088
- LPLEERVTHFRDMLLERGVSAFSTWEKELHKIVFDPRYLLLNSEERKQIFEQFVYTR [K55Y] — lower, -0.667 ± 0.28
- LPLEERVTHFRDMLLERGVSAFSTWEKELHKIVFDPRILLLNSEERKQIFEQFVKTR [Y38I] — within error, -0.645 ± 0.44
- LPLEERVTHFRDMLLERGVSAFSTWEKELHKIVFDPRYLMLNSEERKQIFEQFVKTR [L40M] — within error, -0.295 ± 0.3
- LPLEERVTHFRDMLLERGVSAFSTWEKELHKIVFDPRYLGLNSEERKQIFEQFVKTR [L40G] — within error, -0.349 ± 0.13
- LPLEERVTHFRDMLLERGVSAFSTWEKELHKIVFDPRYLSLNSEERKQIFEQFVKTR [L40S] — lower, -0.619 ± 0.25
- LPLEERVTHFRDMSLERGVSAFSTWEKELHKIVFDPRYLLLNSEERKQIFEQFVKTR [L14S] — lower, -0.831 ± 0.12
- LPLEERVTHFRDMLLGRGVSAFSTWEKELHKIVFDPRYLLLNSEERKQIFEQFVKTR [E16G] — lower, -0.868 ± 0.34
- LPLEERVTHFRDMLLRRGVSAFSTWEKELHKIVFDPRYLLLNSEERKQIFEQFVKTR [E16R] — lower, -1.09 ± 0.35
- LPLEERVTHFRDMLLERGVSAFSTWEKELHKIVFDPRYLLLNSEERKQIFEQFDKTR [V54D] — within error, -0.32 ± 0.32
- LPLEERVTHFRDMLLERGVSAFSTWEKELHKIVFDPRYLLLNSEERKQIFEQFKKTR [V54K] — within error, -0.396 ± 0.49
- LPLEERVTHFRDMLLERGVSAFSTWEKELHKIVFDPRYLLLNSEERAQIFEQFVKTR [K47A] — lower, -0.381 ± 0.1
